Measurements published in the Human Domainome abundance scans (Beltran et al. 2025).
± gives the uncertainty stated by the source.

B1: Pyruvate dehydrogenase protein X component, mitochondrial, residues 181 to 227; numbered along this chain, O00330 (parent)
chain: RFRLSPAARNILEKHSLDASQGTATGPRGIFTKEDALKLVQLKQTGK
B2: CD2-associated protein, residues 1 to 59; numbered along this chain, Q9Y5K6 (parent)
chain: MVDYIVEYDYDAVHDDELTIRVGEIIRNVKKLQEEGWLEGELNGRRGMFPDNFVKEIKR

Variants of: B1
Assay: abundance fitness (aPCA) (normalised: wild type 0, dead -1); higher = more abundant; growth selection in yeast, the domain comes from the species named
Details: Homo sapiens

Row | Variant | abundance fitness
1 | RFRHSPAARNILEKHSLDASQGTATGPRGIFTKEDALKLVQLKQTGK | -0.758 ± 0.11
2 | RFRRSPAARNILEKHSLDASQGTATGPRGIFTKEDALKLVQLKQTGK | -0.588 ± 0.058
3 | RLRLSPAARNILEKHSLDASQGTATGPRGIFTKEDALKLVQLKQTGK | -0.46 ± 0.046
4 | RIRLSPAARNILEKHSLDASQGTATGPRGIFTKEDALKLVQLKQTGK | -0.059 ± 0.1
5 | RQRLSPAARNILEKHSLDASQGTATGPRGIFTKEDALKLVQLKQTGK | -0.679 ± 0.13
6 | RHRLSPAARNILEKHSLDASQGTATGPRGIFTKEDALKLVQLKQTGK | -0.878 ± 0.16
7 | RYRLSPAARNILEKHSLDASQGTATGPRGIFTKEDALKLVQLKQTGK | -0.015 ± 0.083
8 | RKRLSPAARNILEKHSLDASQGTATGPRGIFTKEDALKLVQLKQTGK | -0.232 ± 0.073
9 | RGRLSPAARNILEKHSLDASQGTATGPRGIFTKEDALKLVQLKQTGK | -0.535 ± 0.04
10 | RRRLSPAARNILEKHSLDASQGTATGPRGIFTKEDALKLVQLKQTGK | -0.65 ± 0.041
11 | RVRLSPAARNILEKHSLDASQGTATGPRGIFTKEDALKLVQLKQTGK | -0.486 ± 0.056
12 | RDRLSPAARNILEKHSLDASQGTATGPRGIFTKEDALKLVQLKQTGK | -0.267 ± 0.088
13 | RARLSPAARNILEKHSLDASQGTATGPRGIFTKEDALKLVQLKQTGK | -0.536 ± 0.063
14 | RSRLSPAARNILEKHSLDASQGTATGPRGIFTKEDALKLVQLKQTGK | -0.239 ± 0.046
15 | RERLSPAARNILEKHSLDASQGTATGPRGIFTKEDALKLVQLKQTGK | -0.316 ± 0.059
16 | RNRLSPAARNILEKHSLDASQGTATGPRGIFTKEDALKLVQLKQTGK | 0.091 ± 0.073
17 | RCRLSPAARNILEKHSLDASQGTATGPRGIFTKEDALKLVQLKQTGK | -0.605 ± 0.075
18 | RPRLSPAARNILEKHSLDASQGTATGPRGIFTKEDALKLVQLKQTGK | -1.1 ± 0.14
19 | RTRLSPAARNILEKHSLDASQGTATGPRGIFTKEDALKLVQLKQTGK | -0.323 ± 0.079
20 | RMRLSPAARNILEKHSLDASQGTATGPRGIFTKEDALKLVQLKQTGK | 0.137 ± 0.081
21 | RWRLSPAARNILEKHSLDASQGTATGPRGIFTKEDALKLVQLKQTGK | -1.25 ± 0.11

Variants of: B2
Assay: as above
Details: Homo sapiens

Row | Variant | abundance fitness
22 | MVDYIVEYDYDAVHDDELTIRVGEIIRNVKKLQEEGWLEGELNGRRGMFPDNFVKEIKY | -0.156 ± 0.26
23 | MVDYIVEYDYDAVHDDELTIRVGEIIRNVKKLQEEGWLEGELNGRRGMFPDNFVKEIKP | 0.2 ± 0.15
24 | MVDYIVEYDYDAVHDDELTIRVGEIIRNVKKLQEEGWLEGELNGRRGMFPDNFVKEIKS | 0.052 ± 0.1
25 | MVDYIVEYDYDAVHDDELTIRVGEIIRNVKKLQEEGWLEGELNGRRGMFPDNFVKEIKG | 0.011 ± 0.097
26 | MVDYIVEYDYDAVHDDELTIRVGEIIRNVKKLQEEGWLEGELNGRRGMFPDNFVKEIKE | 0.138 ± 0.12
27 | MVDYIVEYDYDAVHDDELTIRVGEIIRNVKKLQEEGWLEGELNGRRGMFPDNFVKEIKM | -0.058 ± 0.1
28 | MVDYIVEYDYDAVHDDELTIRVGEIIRNVKKLQEEGWLEGELNGRRGMFPDNFVKEIKW | -0.126 ± 0.1
29 | MVDYIVEYDYDAVHDDELTIRVGEIIRNVKKLQEEGWLEGELNGRRGMFPDNFVKEIKH | 0.107 ± 0.14
30 | MVDYIVEYDYDAVHDDELTIRVGEIIRNVKKLQEEGWLEGELNGRRGMFPDNFVKEIKK | 0.012 ± 0.14
31 | MVDYIVEYDYDAVHDDELTIRVGEIIRNVKKLQEEGWLEGELNGRRGMFPDNFVKEIKL | 0.063 ± 0.11
32 | MVDYIVEYDYDAVHDDELTIRVGEIIRNVKKLQEEGWLEGELNGRRGMFPDNFVKEIKA | -0.303 ± 0.22
33 | MVDYIVEYDYDAVHDDELTIRVGEIIRNVKKLQEEGWLEGELNGRRGMFPDNFVKEIKC | 0.035 ± 0.29
34 | MVDYIVEYDYDAVHDDELTIRVGEIIRNVKKLQEEGWLEGELNGRRGMFPDNFVKEIKF | -0.182 ± 0.22
35 | MVDYIVEYDYDAVHDDELTIRVGEIIRNVKKLQEEGWLEGELNGRRGMFPDNFVKEIKT | -0.011 ± 0.32
36 | MVDYIVEYDYDAVHDDELTIRVGEIIRNVKKLQEEGWLEGELNGRRGMFPDNFVKEIKQ | 0.024 ± 0.25
37 | MVDYIVEYDYDAVHDDELTIRVGEIIRNVKKLQEEGWLEGELNGRRGMFPDNFVKVIKR | -0.05 ± 0.27

Row | Variant | abundance fitness
38 | MVDYIVEYDYDAVHDDELTIRVGEIIRNVKKLQEEGWLEGELNGRRGMFPDNFVKTIKR | -0.244 ± 0.17
39 | MVDYIVEYDYDAVHDDELTIRVGEIIRNVKKLQEEGWLEGELNGRRGMFPDNFVKEIGR | -0.008 ± 0.29
40 | MVDYIVEYDYDAVHDDELTIRVGEIIRNVKKLQEEGWLEGELNGRRGMFPDNFVKEIQR | 0.059 ± 0.43
41 | MVDYIVEYDYDAVHDDELTIRVGEIIRNVKKLQEEGWLEGELNGRRGMFPDNFVKEIVR | -0.315 ± 0.29
42 | MVDYIVEYDYDAVHDDELTIRVGEIIRNVKKLQEEGWLEGELNGRRGMFPDNFVKEIER | 0.001 ± 0.22
43 | MVDYIVEYDYDAVHDDELTIRVGEIIRNVKKLQEEGWLEGELNGRRGMFPDNFVKEIRR | -0.036 ± 0.14
44 | MVDYIVEYDYDAVHDDELTIRVGEIIRNVKKLQEEGWLEGELNGRRGMFPDNFVKEIAR | -0.021 ± 0.27
45 | MVDYIVEYDYDAVHDDELTIRVGEIIRNVKKLQEEGWLEGELNGRRGMFPDNFVKEIMR | -0.138 ± 0.25
46 | MVDYIVEYDYDAVHDDELTIRVGEIIRNVKKLQEEGWLEGELNGRRGMFPDNFVKEICR | -0.099 ± 0.24
47 | MVDYIVEYDYDAVHDDELTIRVGEIIRNVKKLQEEGWLEGELNGRRGMFPDNFVKEGKR | -0.157 ± 0.24
48 | MVDYIVEYDYDAVHDDELTIRVGEIIRNVKKLQEEGWLEGELNGRRGMFPDNFVKEMKR | -0.205 ± 0.35
49 | MVDYIVEYDYDAVHDDELTIRVGEIIRNVKKLQEEGWLEGELNGRRGMFPDNFVKERKR | -0.007 ± 0.25
50 | MVDYIVEYDYDAVHDDELTIRVGEIIRNVKKLQEEGWLEGELNGRRGMFPDNFVKEPKR | -0.326 ± 0.31
51 | MVDYIVEYDYDAVHDDELTIRVGEIIRNVKKLQEEGWLEGELNGRRGMFPDNFVKEVKR | -0.03 ± 0.37
52 | MVDYIVEYDYDAVHDDELTIRVGEIIRNVKKLQEEGWLEGELNGRRGMFPDNFVKECKR | -0.25 ± 0.32
